Source: article PMC6733924

Tests used:
[1] = target: GST fused to the TRPM8 C-terminal tail; assay: pull-down; as a4, with 1, 10 or 100 nM testosterone during incubation of in vitro translated AR with the N- or C-terminal tail of TRPM8
[2] = target: GST fused to the TRPM8 N-terminal tail; assay: pull-down; purified GST-fusion proteins of the TRPM8 tails on beads incubated overnight at 4 °C with in vitro translated AR proteins, no testosterone; fluorescence imaging or anti-AR immunoblot; normalised to the input

Sequence of in vitro translated AR (P10275 whole entry, the tested form may be a part): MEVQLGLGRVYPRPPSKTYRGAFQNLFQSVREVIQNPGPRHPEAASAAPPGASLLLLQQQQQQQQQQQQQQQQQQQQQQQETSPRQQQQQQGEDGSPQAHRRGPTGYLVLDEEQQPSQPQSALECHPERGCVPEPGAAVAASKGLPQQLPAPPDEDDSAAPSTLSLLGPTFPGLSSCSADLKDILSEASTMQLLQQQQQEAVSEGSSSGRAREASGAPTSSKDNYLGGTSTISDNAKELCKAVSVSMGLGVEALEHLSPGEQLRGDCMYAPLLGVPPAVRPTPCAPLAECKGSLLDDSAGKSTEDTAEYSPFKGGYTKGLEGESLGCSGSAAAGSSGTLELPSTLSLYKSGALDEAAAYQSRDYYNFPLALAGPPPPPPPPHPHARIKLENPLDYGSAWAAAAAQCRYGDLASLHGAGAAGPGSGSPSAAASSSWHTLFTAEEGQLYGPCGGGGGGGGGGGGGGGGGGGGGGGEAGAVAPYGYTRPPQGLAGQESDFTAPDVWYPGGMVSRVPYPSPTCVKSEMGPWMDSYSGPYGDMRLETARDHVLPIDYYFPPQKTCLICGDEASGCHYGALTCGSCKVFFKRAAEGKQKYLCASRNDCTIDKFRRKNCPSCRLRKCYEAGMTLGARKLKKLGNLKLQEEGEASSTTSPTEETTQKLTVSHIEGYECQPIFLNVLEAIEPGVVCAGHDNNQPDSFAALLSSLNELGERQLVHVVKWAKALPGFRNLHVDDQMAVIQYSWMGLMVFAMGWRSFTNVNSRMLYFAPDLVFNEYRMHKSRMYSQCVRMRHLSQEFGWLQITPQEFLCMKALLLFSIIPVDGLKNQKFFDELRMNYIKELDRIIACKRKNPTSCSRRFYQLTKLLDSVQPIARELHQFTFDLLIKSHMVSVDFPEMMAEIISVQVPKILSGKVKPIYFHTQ

in vitro translated AR (from UniProt P10275 1-920) (natural protein)
percent decrease of pulled-down AR with 1 nM testosterone [1]: 43%
percent decrease of pulled-down AR with 10 nM testosterone [1]: 65.6%
percent decrease of pulled-down AR with 100 nM testosterone [1]: 93.1%
percent stronger pull-down by M8-Nt than by M8-Ct [2]: 48%
